From US20240034774A1
Residue numbers refer to the chain shown, from its start.

Legend:
Assay in all cases: cell-based or functional assay
[1] = biological target: HIV-1 envelope glycoprotein (gp120) of virus 8134 (HIV-1)
[2] = biological target: HIV-1 envelope glycoprotein (gp120) of virus THRO (HIV-1)
[3] = biological target: HIV-1 envelope glycoprotein (gp120) of virus 1413 (HIV-1)
[4] = biological target: HIV-1 envelope glycoprotein (gp120) of virus 92HT593 (HIV-1)
[5] = biological target: HIV-1 envelope glycoprotein (gp120) of virus REJO (HIV-1)
[6] = biological target: HIV-1 envelope glycoprotein (gp120) of virus CHO77 (HIV-1)
[7] = biological target: HIV-1 envelope glycoprotein (gp120) of virus 7051 (HIV-1)
[8] = biological target: HIV-1 envelope glycoprotein (gp120) of virus VS030 (HIV-1)
[9] = biological target: HIV-1 envelope glycoprotein (gp120) of virus VS046 (HIV-1)
[10] = biological target: HIV-1 envelope glycoprotein (gp120) of virus 7595 (HIV-1)
[11] = biological target: HIV-1 envelope glycoprotein (gp120) of virus 8320 (HIV-1)
[12] = biological target: HIV-1 envelope glycoprotein (gp120) of virus 7141 (HIV-1)
[13] = biological target: HIV-1 envelope glycoprotein (gp120) of virus 7552 (HIV-1)
[14] = biological target: HIV-1 envelope glycoprotein (gp120) of virus VS042 (HIV-1)
[15] = biological target: HIV-1 envelope glycoprotein (gp120) of virus VS026 (HIV-1)
[16] = biological target: HIV-1 envelope glycoprotein (gp120) of virus VS004 (HIV-1)
[17] = biological target: HIV-1 envelope glycoprotein (gp120) of virus 7467 (HIV-1)
[18] = biological target: HIV-1 envelope glycoprotein (gp120) of virus VS043 (HIV-1)
[19] = biological target: HIV-1 envelope glycoprotein (gp120) of virus 7714 (HIV-1)
[20] = biological target: HIV-1 envelope glycoprotein (gp120) of virus 8117 (HIV-1)
[21] = biological target: HIV-1 envelope glycoprotein (gp120) of virus VS049 (HIV-1)
[22] = biological target: HIV-1 envelope glycoprotein (gp120) of virus 7103 (HIV-1)
[23] = biological target: HIV-1 envelope glycoprotein (gp120) of virus 8176 (HIV-1)
[24] = biological target: HIV-1 envelope glycoprotein (gp120) of virus 92US657 (HIV-1)
[25] = biological target: HIV-1 envelope glycoprotein (gp120) of virus VS044 (HIV-1)
[26] = biological target: HIV-1 envelope glycoprotein (gp120) of virus 1003 (HIV-1)
[27] = biological target: HIV-1 envelope glycoprotein (gp120) of virus 1489 (HIV-1)
[28] = biological target: HIV-1 envelope glycoprotein (gp120) of virus 92US727 (HIV-1)
[29] = biological target: HIV-1 envelope glycoprotein (gp120) of virus VS039 (HIV-1)
[30] = biological target: HIV-1 envelope glycoprotein (gp120) of virus VS001 (HIV-1)
[31] = biological target: HIV-1 envelope glycoprotein (gp120) of virus 302076 (HIV-1)
[32] = biological target: HIV-1 envelope glycoprotein (gp120) of virus 92US712 (HIV-1)
[33] = biological target: HIV-1 envelope glycoprotein (gp120) of virus 8110 (HIV-1)
[34] = biological target: HIV-1 envelope glycoprotein (gp120) of virus 7015 (HIV-1)
[35] = biological target: HIV-1 envelope glycoprotein (gp120) of virus 8318 (HIV-1)
[36] = biological target: HIV-1 envelope glycoprotein (gp120) of virus 7576 (HIV-1)
[37] = biological target: HIV-1 envelope glycoprotein (gp120) of virus VS017 (HIV-1)
[38] = biological target: HIV-1 envelope glycoprotein (gp120) of virus 1012 (HIV-1)
[39] = biological target: HIV-1 envelope glycoprotein (gp120) of virus 8106 (HIV-1)
[40] = biological target: HIV-1 envelope glycoprotein gp120 of virus BaL (HIV-1 (subtype B))
[41] = biological target: HIV-1 envelope glycoprotein gp120 of virus CHO77 (HIV-1 (subtype B))
[42] = biological target: HIV-1 envelope glycoprotein gp120 of virus 92US657 (HIV-1 (subtype B))

B1: Antibody 1.1.119-1 (antibody, human IgG1, kappa, V domains shown)
VH: QVQLLQSGAAVTKPGASVRVSCEASGYNIRDYFIHWWRQAPGQGLQWVGWINPKTGQPNNPRQFQGRVSLTRHASWDFDTFSFYMDLKALRSDDTAVYFCARQRSDYWDFDVWGSGTQVTVSS
VL: DIQMTQSPSSLSASVGDRATITCQANGYLNWYQQRRGKAPKLLIYDGSKLERGVPSRFSGSRWGQEYTLTISSLQPEDIATYFCQVYEFFGPGTRLDLKR
B1 showed a Virus Neutralization Potency [1] of 3.44 µg/mL, a Virus Neutralization Potency [2] of 2.8 µg/mL and a Virus Neutralization Potency [3] of 4.52 µg/mL. For the same binder, the Virus Neutralization Potency [4] was 0.15 µg/mL, the Virus Neutralization Potency [5] was 0.03 µg/mL and the Virus Neutralization Potency [6] was 0.02 µg/mL. It also gave a Virus Neutralization Potency [7] of 1.89 µg/mL, a Virus Neutralization Potency [8] of 4.96 µg/mL and a Virus Neutralization Potency [9] of 0.03 µg/mL. For the same binder, the Virus Neutralization Potency [10] was 3.07 µg/mL, the Virus Neutralization Potency [11] was 1.47 µg/mL and the Virus Neutralization Potency [12] was 4.98 µg/mL. For the same binder, the Virus Neutralization Potency [13] was greater than 80 µg/mL, the Virus Neutralization Potency [14] was 2.19 µg/mL and the Virus Neutralization Potency [15] was 0.14 µg/mL. For the same binder, the Virus Neutralization Potency [16] was 6.02 µg/mL, the Virus Neutralization Potency [17] was 0.19 µg/mL and the Virus Neutralization Potency [18] was 0.81 µg/mL. The Virus Neutralization Potency [19] was 1.93 µg/mL, the Virus Neutralization Potency [20] was 1.66 µg/mL and the Virus Neutralization Potency [21] was greater than 100 µg/mL. For the same binder, the Virus Neutralization Potency [22] was 1.16 µg/mL, the Virus Neutralization Potency [23] was 0.27 µg/mL and the Virus Neutralization Potency [24] was 0.3 µg/mL. It also gave a Virus Neutralization Potency [25] of 0.2 µg/mL, a Virus Neutralization Potency [26] of 0.91 µg/mL and a Virus Neutralization Potency [27] of 0.17 µg/mL. It also gave a Virus Neutralization Potency [28] of 43.7 µg/mL, a Virus Neutralization Potency [29] of 0.13 µg/mL and a Virus Neutralization Potency [30] of 0.37 µg/mL. For the same binder, the Virus Neutralization Potency [31] was 0.08 µg/mL, the Virus Neutralization Potency [32] was 0.03 µg/mL and the Virus Neutralization Potency [33] was 2.37 µg/mL. The Virus Neutralization Potency [34] was 1.08 µg/mL, the Virus Neutralization Potency [35] was 0.42 µg/mL and the Virus Neutralization Potency [36] was 0.6 µg/mL. It also gave a Virus Neutralization Potency [37] of 2.75 µg/mL, a Virus Neutralization Potency [38] of 1.06 µg/mL and a Virus Neutralization Potency [39] of 1.44 µg/mL.

B2: Antibody 1.36.35-1 (antibody, human IgG1, kappa, V domains shown)
VH: QVQLVQSGAEVKKPGASVRVSCKASGYNIRDYFMHWWRQAPGQGLQWVGWINPKTGQPNNPRQFQGRVTMTRHASWDFDTFSAYMDLSRLRSDDTATYFCARQRTDYWDFDVWGQGTMVTVSS
VL: B1 VL with A19V, R35K, R36P, K49N, R52T, F90V, R95N, L98I
B2 gave a Virus Neutralization Potency (IC50) [40] greater than 20 µg/mL, a Virus Neutralization Potency (IC50) [41] of 0.32 µg/mL and a Virus Neutralization Potency (IC50) [42] of 5.37 µg/mL.
